{"source": "paper PMC5027616", "about": "“IL-13Rα2 uses TMEM219 in chitinase 3-like-1-induced signalling and effector responses” (Nature Communications, 2016)", "binders": {"B1": {"name": "His-tagged human TMEM219 (natural protein, UniProt Q86XT9 39-240, looked up)", "chain": "SFLLTHRTGLRSPDIPQDWVSFLRSFGQLTLCPRNGTVTGKWRGSHVVGLLTTLNFGDGPDRNKTRTFQATVLGSQMGLKGSSAGQLVLITARVTTERTAGTCLYFSAVPGILPSSQPPISCSEEGAGNATLSPRMGEECVSVWSHEGLVLTKLLTSEELALCGSRLLVLGSFLLLFCGLLCCVTAMCFHPRRESHWSRTRL", "notes": "also called recombinant human (rh) TMEM219; rTMEM219; source: HEK293T cells (pcDNA3.1), purified (Nickel beads)"}}, "biological_target": "T1, IL-13Rα2-Chi3l1 complexes (labelled) (UniProt Q14627 27-343; P36222 22-383, BODPY-TRM-X-succinimidyl ester label)", "T1 construct": "IL-13 receptor alpha 2, ectodomain; as m13; chitinase 3-like-1; as m12; The legend calls the complexes labelled; also called IL-13Rα2 complexed with Chi3l1; source: both proteins from the baculovirus-insect cell expression system, purified; complex formed before the titration", "T1 sequence (Q14627 27-343, chain 1 of 2)": "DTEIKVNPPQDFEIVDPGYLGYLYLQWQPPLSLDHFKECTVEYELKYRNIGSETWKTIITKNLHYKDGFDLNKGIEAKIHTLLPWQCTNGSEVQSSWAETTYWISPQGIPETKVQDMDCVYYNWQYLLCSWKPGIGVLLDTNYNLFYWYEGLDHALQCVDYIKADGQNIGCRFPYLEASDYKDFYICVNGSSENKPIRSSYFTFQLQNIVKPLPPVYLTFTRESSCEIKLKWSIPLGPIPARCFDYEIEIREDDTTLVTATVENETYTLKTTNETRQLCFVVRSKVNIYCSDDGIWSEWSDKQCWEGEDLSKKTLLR", "T1 sequence (P36222 22-383, chain 2 of 2)": "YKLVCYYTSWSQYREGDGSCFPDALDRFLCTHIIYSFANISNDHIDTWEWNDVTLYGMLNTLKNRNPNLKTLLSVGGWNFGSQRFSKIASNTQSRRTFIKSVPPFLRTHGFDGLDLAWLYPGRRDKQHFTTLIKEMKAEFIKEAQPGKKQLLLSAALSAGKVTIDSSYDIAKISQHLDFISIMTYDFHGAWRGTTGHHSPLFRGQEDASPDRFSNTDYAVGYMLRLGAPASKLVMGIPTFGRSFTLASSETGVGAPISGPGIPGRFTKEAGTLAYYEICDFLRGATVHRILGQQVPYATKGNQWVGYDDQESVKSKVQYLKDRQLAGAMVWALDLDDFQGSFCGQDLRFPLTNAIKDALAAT", "test": "fluorescence polarisation; fluorescence anisotropy; serial dilutions of TMEM219 in 13 nm nanodisc (10 nM-10 μM) added to 10 nM labelled protein or complex; PBS for labelling; empty nanodisc as control", "conditions": "both partners purified"}
{"binder": "B1", "values": [{"measurement": "Kd", "result": "~288", "unit": "nM"}]}
